One block for each molecule: values may come before it.
What was measured:
Paxillin = Paxillin (UniProt P49023); conditions: cited from earlier work
[1] = molecular target: human Kindlin-3 F0 (1-105), GST tag removed (human, UniProt Q86UX7 1-105); test: NMR titration
Chain of human Kindlin-3 F0 (1-105), GST tag removed (Q86UX7 1-105): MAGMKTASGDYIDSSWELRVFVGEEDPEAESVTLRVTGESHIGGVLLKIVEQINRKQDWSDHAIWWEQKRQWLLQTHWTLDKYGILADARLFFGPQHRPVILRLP

Molecule: Kindlin-2 (from UniProt Q96AC1)
Kd (Paxillin): 201 µM

Kd [1]: 192 µM
B1: human LPXN LIM4 (324-386), 15N-labeled, GST tag removed (domain or fragment, UniProt O60711 324-386, looked up)
chain: RRGTLCHGCGQPITGRCISAMGYKFHPEHFVCAFCLTQLSKGIFREQNDKTYCQPCFNKLFPL
modifications: also: 15N-labeled

Kd [1]: 117 µM
B2: human PXN (paxillin-γ) LIM4 (541-605), 15N-labeled, GST tag removed (domain or fragment, UniProt P49023-3 541-605, looked up)
chain: YHERRGSLCSGCQKPITGRCITAMAKKFHPEHFVCAFCLKQLNKGTFKEQNDKPYCQNCFLKLFC
modifications: also: 15N-labeled

— paper PMC8203317 (Journal of immunology (Baltimore, Md. : 1950), 2020)
